Literature values in publication PMC2920229.
pKd: −log10 of the molar value.

Molecular target: HIV-1 protease (Human immunodeficiency virus 1) (UniProt O93215)

**Q.** With HIV-1 protease (from UniProt O93215) as the substance, how does the pKd read?
**A.** > 8.30
